Data: paper PMC12775570

Experiments:
[1] = target: His-tagged recombinant human EGFR extracellular domain (Homo sapiens) (UniProt P00533); assay: high-speed atomic force microscopy
[2] = target: Recombinant human MET extracellular domain (Homo sapiens) (UniProt P08581); assay: high-speed atomic force microscopy

Substance: Amivantamab (bispecific antibody)
- percent of the observation period with both EGFR and MET bound to amivantamab [1]: 78%
- percent of the observation period bound [2]: 87%
- percent of the observation period with both EGFR and MET bound to amivantamab [2]: 78%
